Assay results from patent US6515110.

Columns and labels:
[1] = target: TAG-72 antigen on a human breast carcinoma extract (human); assay: competition RIA, competitor 125I-CC49 IgG, human breast carcinoma extract
[2] = target: TAG-72 antigen on a human breast carcinoma extract (human); assay: competition ELISA, competitor biotin-CC49 IgG, human breast carcinoma extract

Row | Substance | fold higher protein concentration needed to displace the IgG (against CC49 IgG and bivalent CC49/212) [1] [fold] | fold higher protein concentration needed to displace the IgG (against CC49/212 single-chain Fv) [2] [fold]
1 | CC49/212 single-chain antigen-binding protein (monomer) (scFv) | 10 | –
2 | CC49/4-4-20 heterodimer Fv (fraction 5) (bispecific antibody) | – | 200
